In patent US11780901B2, “Analogues of parathyroid hormone (1-34) that function as agonists of the parathyroid hormone receptor-1 and display modified activity profiles” (Wisconsin Alumni Research Foundation, priority 2013, dated 2023):

Key:
[1] = target: T1, PTHR1 (Homo sapiens, UniProt Q03431); assay: Functional selectivity (Gs activation/cAMP production vs βarr recruitment); format: cell-based; parameters: expressed in transfected cells; host or cells: cells stably expressing PTHR1; details: cAMP activation vs βarr1 and βarr2 recruitment, relative to PTH (1-34)
T1 sequence (Q03431 27-593): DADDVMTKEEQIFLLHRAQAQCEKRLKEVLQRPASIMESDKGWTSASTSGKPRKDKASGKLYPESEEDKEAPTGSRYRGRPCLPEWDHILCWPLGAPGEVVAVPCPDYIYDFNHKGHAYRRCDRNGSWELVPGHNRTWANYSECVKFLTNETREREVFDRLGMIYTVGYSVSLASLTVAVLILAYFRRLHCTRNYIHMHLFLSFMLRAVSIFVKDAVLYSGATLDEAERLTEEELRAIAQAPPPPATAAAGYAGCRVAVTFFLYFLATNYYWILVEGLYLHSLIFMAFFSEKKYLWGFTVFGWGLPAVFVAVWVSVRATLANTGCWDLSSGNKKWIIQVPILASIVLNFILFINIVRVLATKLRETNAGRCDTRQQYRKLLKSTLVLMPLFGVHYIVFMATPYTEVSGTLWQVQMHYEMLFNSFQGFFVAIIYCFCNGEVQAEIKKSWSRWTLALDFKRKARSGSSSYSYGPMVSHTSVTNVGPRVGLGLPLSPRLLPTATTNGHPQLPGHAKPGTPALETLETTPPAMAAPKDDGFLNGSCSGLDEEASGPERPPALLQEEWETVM
Experimental: More specifically, the initial studies that yielded the compounds disclosed and claimed herein were conducted to determine whether there is a correlation between βarr recruitment and receptor residence time of a PTHR1 agonist. The initial studies were thus conducted in two steps. First, the functional selectivity (Gs activation as indicated by cAMP production vs. βarr recruitment) of several PTHR1 agonists that display substantial differences in signaling duration were evaluated. Second, novel PTHR1 agonists were designed that have high functional selectivity and evaluated the signaling duration of these biased agonists.
(§1) The functional selectivity of BA058 is more significant than that of PTHrP. […] LA-PTH is a long-acting PTH analog. […] The middle panels in FIG. 2 are graphs depicting, from left-to-right: βarr1 and βarr2 recruitment, presented as normalized BRET signals (bioluminescence resonance energy transfer) as a function of the log of the peptide concentration, and cAmp activation presented as normalized RLU signals (relative light units) as a function of the log of the peptide concentration. Red=PTH. Orange=LA=LA−PTH. Blue=BA058. Green=PTHrP. (BRET assays are well known and suitable kits are available commercially. See, for example, Promega's “NanoBRET” kits, catalogs nos. N1821 and N1811; Promega Corporation, Fitchburg, Wis.). The table at the bottom of FIG. 2 presents the pEC50 and Emax values for the […] and βarr2 recruitment and cAMP activation. FIG. 3 presents the data for the bias of the activity—either toward βarr recruitment or cAMP activation.
Incorporating (R*)-β^2Leu/(D)-Leu at the 7th position or (R*)-β^2Nle at the 8th position leads to high Gs-biased agonism. […] (D)-Nle is poorly tolerated at the 8th position for both cAMP signaling and βarr recruitment. The top panels in FIG. 5 are graphs depicting, from left-to-right: βarr1 and βarr2 recruitment, presented as normalized BRET signals as a function of the log of the peptide concentration, and cAmp activation presented as normalized RLU signals as a function of the log of the peptide concentration. […]

[2] = target: T2, rat PTHR-1 (GR35 cells) (Rattus norvegicus, UniProt P25961); assay: Washout assay of Gs-biased PTHR1 agonists (cAMP response after washout); format: cell-based; details: compared with PTH (1-34)
T2 construct: expressed in transfected cells
T2 sequence (P25961 27-591): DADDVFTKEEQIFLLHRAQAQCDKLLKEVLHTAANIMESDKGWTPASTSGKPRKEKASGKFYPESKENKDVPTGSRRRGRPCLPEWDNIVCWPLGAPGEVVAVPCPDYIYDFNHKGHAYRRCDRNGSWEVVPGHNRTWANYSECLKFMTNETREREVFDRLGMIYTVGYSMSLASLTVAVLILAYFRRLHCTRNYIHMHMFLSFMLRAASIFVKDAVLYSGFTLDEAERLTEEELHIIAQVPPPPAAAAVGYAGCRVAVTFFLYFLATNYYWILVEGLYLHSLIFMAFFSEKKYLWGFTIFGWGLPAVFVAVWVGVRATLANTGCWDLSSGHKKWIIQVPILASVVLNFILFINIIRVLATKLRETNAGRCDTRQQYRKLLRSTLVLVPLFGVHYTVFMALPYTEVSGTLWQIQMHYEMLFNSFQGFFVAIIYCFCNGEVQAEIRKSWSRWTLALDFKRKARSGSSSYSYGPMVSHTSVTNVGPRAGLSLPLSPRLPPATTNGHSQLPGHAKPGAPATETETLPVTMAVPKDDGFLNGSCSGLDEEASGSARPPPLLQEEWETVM
Experimental: These “washout assays”^7,8,21 assess the ability of the peptides to form stable ligand-receptor complexes capable of stimulating prolonged cAMP responses. The ability of a peptide to elicit prolonged cAMP responses via PTHR-1 following washout typically correlates with the affinity of that peptide for the R^0 state.^7,8,21
HEK293 cell monolayers expressing rat PTHR-1 (GR35 cells) were treated with ligand in for 14 minutes. This buffer was then discarded, and the cell monolayer was rinsed (2×). Buffer containing luciferin was introduced for 120 minutes. Luminescence response was recorded before and after washout, with luminescence readings recorded every 2 minutes. The area under the curve (AUC) for luminescence response curve was determined using GraphPad Prism.
Data were processed by using the Microsoft Excel and GraphPad Prism 4.0 software packages. Data from binding and cAMP dose—response assays were analyzed using a sigmoidal dose—response model with variable slope. Washout responses were assessed by quantifying the area under the luminescence response curve (AUC) following washout. Post-washout AUC was normalized by dividing the post-washout AUC by the pre-washout AUC. Paired data sets were statistically compared by using Student's t test (two-tailed) assuming unequal variances for the two sets.

[3] = target: T3, PTHR2 Y318I (Homo sapiens, UniProt P49190, Y318I); assay: Activation of PTHR2 variant Y318I; format: cell-based; details: 100 nM
T3 construct: expressed in transfected cells
T3 sequence (P49190 25-550 Y318I): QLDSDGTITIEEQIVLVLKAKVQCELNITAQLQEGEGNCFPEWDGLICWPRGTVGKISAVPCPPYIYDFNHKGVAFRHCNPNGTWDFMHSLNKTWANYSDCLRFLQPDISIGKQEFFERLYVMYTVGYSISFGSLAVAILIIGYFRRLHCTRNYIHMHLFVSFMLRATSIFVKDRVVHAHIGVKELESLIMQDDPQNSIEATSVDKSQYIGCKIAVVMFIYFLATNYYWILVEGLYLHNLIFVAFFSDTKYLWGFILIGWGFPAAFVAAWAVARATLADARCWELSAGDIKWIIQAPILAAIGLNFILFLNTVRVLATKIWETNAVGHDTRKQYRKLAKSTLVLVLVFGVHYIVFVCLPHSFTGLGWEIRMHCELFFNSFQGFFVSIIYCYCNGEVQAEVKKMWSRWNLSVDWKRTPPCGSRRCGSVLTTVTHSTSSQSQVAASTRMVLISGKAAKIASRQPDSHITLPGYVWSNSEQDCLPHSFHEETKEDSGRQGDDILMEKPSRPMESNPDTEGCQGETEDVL
Source text: (§2) Molecular basis of PTHR1 vs. PTHR2 selectivity. Previous receptor-mutation studies have identified sites within PTHR1 and PTHR2 that play critical roles in determining peptide agonist selectivity.

[4] = target: T1, PTHR1; parameters: expressed in transfected cells; details: previous studies; cited from earlier work
[5] = test system: PTHR2 ECL1 chimera; assay: Activation of PTHR2 variant, ECL1 chimera; format: cell-based; details: 100 nM
Source text: as §2

[6] = target: T1, PTHR1; assay: Wash-out assay, duration of PTHR1 activation; format: cell-based; parameters: expressed in transfected cells; host or cells: cells stably expressing PTHR1; details: PTHR1; agonist at ~EC80; PTH(1-34)-NH2 = 100
Source text: Duration of activation for PTHR1 and PTHR2. To assess the duration of PTHR1 and PTHR2 activation induced by α/β-peptides 14 and 15, the time course of cAMP production by each receptor was examined after stimulation with an agonist and subsequent washing of the cells to remove unbound peptide (wash-out assay). […] During the initial “ligand-on” phase, cells stably expressing PTHR1 or PTHR2 were stimulated with an agonist concentration corresponding to ˜EC80; the medium contained D-luciferin. […] After the addition of fresh medium containing D-luciferin, the luminescence decay is measured. The area under the “ligand-off” curve (AUC) reflects the duration of signaling, which may be related to residence time of the agonist on the receptor but could have other origins at the molecular level.

[7] = target: T4, PTHR2 (Homo sapiens, UniProt P49190); assay: Antagonism of PTHR2 activation by PTH(1-34)-NH2; format: cell-based; parameters: expressed in transfected cells; host or cells: cells stably expressing PTHR2; details: FIG. 11
T4 sequence (P49190 25-550): as the sequence (P49190 25-550 Y318I) above, with I294Y counted along it
Source text: Data points represent mean±s.e.m from four independent experiments. Curves were fit to the data using a four-parameter sigmoidal dose-response equation.
See Hoare, S. R. J., Clark, J. A. & Usdin, T. B. Molecular determinants of tuberoinfundibular peptide of 39 residues (TIP39) selectivity for the parathyroid hormone-2 (PTH2) receptor—N-terminal truncation of TIP39 reverses PTH2 receptor/PTH1 receptor binding selectivity. Journal of Biological Chemistry 275, 27274-27283 (2000) and Gardella, T. J., Luck, M. D., Jensen, G. S., Usdin, T. B. & Juppner, H. Converting parathyroid hormone-related peptide (PTHrP) into a potent PTH-2 receptor agonist.

[8] = target: T4, PTHR2; parameters: expressed in transfected cells; details: previous studies; cited from earlier work
[9] = target: T5, PTHR2 I244L (Homo sapiens, UniProt P49190, I244L); assay: Activation of PTHR2 variant I244L; format: cell-based; details: 100 nM
T5 construct: expressed in transfected cells
T5 sequence (P49190 25-550 I244L): as the sequence (P49190 25-550 Y318I) above, with I220L, I294Y counted along it
Source text: as §2

[10] = target: T6, R^0 state of PTHR1 (Homo sapiens, UniProt Q03431); details: relative to PTH (1-34); cited from earlier work
T6 construct: expressed in transfected cells; host or cells: COS-7, transient; membranes
T6 sequence (Q03431 27-593): T1 sequence (Q03431 27-593)

[11] = target: T1, PTHR1; assay: βarr recruitment (BRET); format: cell-based; parameters: expressed in transfected cells; host or cells: cells stably expressing PTHR1; details: compared with PTH and LA-PTH
Source text: as §1

Ligand 12: PTH(1-34) analogue with replaced residue at position 8 (character image); highly Gs-biased (SVSEIQLXHNLGKHLNSMERVEWLRKKLQDVHNF; non-natural residue at position 8; MOD_RES (8)..(8) X at position 8 is (R*)-Beta-2-Norleucine.)
signaling bias / functional selectivity (in words) [1]: strongly biased toward cAMP activation relative to both βarr1 and βarr2 recruitment | signaling duration after washout (in words) [2]: more transient signaling than PTH (1-34)

PTHrP(1-36)-NH2: parathyroid hormone-related protein fragment, naturally PTHR1-selective agonist
agonist activity at PTHR2 Y318I relative to wild-type PTHR2 (in words) [3]: much more susceptible to activation | PTHR1 agonist activity (in words) [4]: potent agonist | signaling bias / functional selectivity (in words) [1]: biased toward cAMP activation relative to both βarr1 and βarr2 recruitment | agonist activity at PTHR2 ECL1 chimera relative to wild-type PTHR2 (in words) [5]: much more susceptible to activation | Normalized ligand-on Emax [6]: 102 ± 1 | antagonism of PTHR2 activation by PTH(1-34)-NH2 (in words) [7]: antagonistic effect | PTHR2 agonist activity (in words) [8]: very weak agonist | agonist activity at PTHR2 I244L relative to wild-type PTHR2 (in words) [9]: much more susceptible to activation | R0 affinity (in words) [10]: moderate | βarr recruitment efficacy maximum (in words) [11]: lower efficacy βarr recruitment maximum
